{"source": "patent US20230416341A1", "about": "“IMPROVED THROMBIN INHIBITORS FOR TREATMENT OF THROMBOEMBOLIC CONDITIONS” (priority 2020, published 2023)", "system": "occluded carotid artery", "experiment": "Experimental thrombosis and thrombolysis of the carotid artery (electrolytic injury, rtPA/anticoagulant combination, vessel recanalization)", "format": "in vivo, mice", "details": "rtPA therapy alone, 10 mg/kg bolus/infusion, blood flow assessed for 60 minutes", "experimental": "Thrombosis: Electrolytic injury was used to generate in situ thrombotic occlusion of the carotid artery in anaesthetised mice, as described (Jackson et al, Nature Medicine 2005; Schoenwaelder et al, J Biol Chem, 2007). Baseline blood flow through the carotid artery was measured using an ultrasound Doppler flow probe. The flow probe was removed, and vessel injury was delivered in the presence of stasis, through placement of a distal haemostatic clamp (Micro Serrefine Clamp, 18055-05, Fine Science Tools, Canada). Delivery of an electrical current (8 mA or 28 mA for 3 minutes) was achieved using a lesion making device (Model 53500, Ugo Basile, Comerio, VA, Italy), with the injury site flushed constantly with saline to prevent tissue dehydration. […]\nThrombolysis: Intravenous thrombolysis was commenced 15 minutes following stable thrombotic vessel occlusion, as monitored with the flow probe. rtPA was administered via jugular catheter using a Harvard Apparatus syringe pump (Cat #704504; Pump Elite 11 I/W Single Syringe Pump, NSW, Australia). […] Carotid artery blood flow was assessed for 60 minutes following commencement of treatment. […] Following thrombolytic therapy, return of carotid artery blood flow was assessed using the mean blood flow recorded with LabChart software (version 7.0, ADInstruments, NSW, Australia). […]"}
{"molecule": "rtPA: thrombolytic agent recombinant tissue plasminogen activator (protein, UniProt P00750 36-562, looked up) Tissue-type plasminogen …: SYQVICRDEKTQMIYQQHQSWLRPVLRSNRVEYCWCNSGRAQCHSVPVKSCSEPRCFNGGTCQQALYFSDFVCQCPEGFAGKCCEIDTRATCYEDQGISYRGTWSTAESGAECTNWNSSALAQKPYSGRRPDAIRLGLGNHNYCRNPDRDSKPWCYVFKAGKYSSEFCSTPACSEGNSDCYFGNGSAYRGTHSLTESGASCLPWNSMILIGKVYTAQNPSAQALGLGKHNYCRNPDGDAKPWCHVLKNRRLTWEYCDVPSCSTCGLRQYSQPQFRIKGGLFADIASHPWQAAIFAKHRRSPGERFLCGGILISSCWILSAAHCFQERFPPHHLTVILGRTYRVVPGEEEQKFEVEKYIVHKEFDDDTYDNDIALLQLKSDSSRCAQESSVVRTVCLPPADLQLPDWTECELSGYGKHEALSPFYSERLKEAHVRLYPSSRCTSQHLLNRTVTDNMLCAGDTRSGGPQANLHDACQGDSGGPLVCLNDGRMTLVGIISWGLGCGQKDVPGVYTKVTNYLDWIRDNMRP", "values": [{"measurement": "vessel recanalization", "result": "remains occluded"}]}
